Consider 2 molecules from publication doi:10.1101/2021.07.22.452893 (bioRxiv, 2021).

In general, Kd refers to the equilibrium constant for the complex coming apart. Low readings indicate higher affinity, high ones lower affinity.

Assay [1] has as its target Complement factor H (human) (UniProt P08603). Kind of assay: ELISA. Background: An ELISA detects its analyte on a solid surface through an enzyme-linked reagent.
Assay [2] has as its target PPACK-thrombin. In words: SPR. (In general: In SPR one partner is held on a chip, and binding of the other changes the refractive index at the surface.)
The target of assay [3] is T1, fibrinogen (UniProt P02671-2 20-644; P02675 31-491; P02679-2 27-437).
T1 sequence (looked up) 1: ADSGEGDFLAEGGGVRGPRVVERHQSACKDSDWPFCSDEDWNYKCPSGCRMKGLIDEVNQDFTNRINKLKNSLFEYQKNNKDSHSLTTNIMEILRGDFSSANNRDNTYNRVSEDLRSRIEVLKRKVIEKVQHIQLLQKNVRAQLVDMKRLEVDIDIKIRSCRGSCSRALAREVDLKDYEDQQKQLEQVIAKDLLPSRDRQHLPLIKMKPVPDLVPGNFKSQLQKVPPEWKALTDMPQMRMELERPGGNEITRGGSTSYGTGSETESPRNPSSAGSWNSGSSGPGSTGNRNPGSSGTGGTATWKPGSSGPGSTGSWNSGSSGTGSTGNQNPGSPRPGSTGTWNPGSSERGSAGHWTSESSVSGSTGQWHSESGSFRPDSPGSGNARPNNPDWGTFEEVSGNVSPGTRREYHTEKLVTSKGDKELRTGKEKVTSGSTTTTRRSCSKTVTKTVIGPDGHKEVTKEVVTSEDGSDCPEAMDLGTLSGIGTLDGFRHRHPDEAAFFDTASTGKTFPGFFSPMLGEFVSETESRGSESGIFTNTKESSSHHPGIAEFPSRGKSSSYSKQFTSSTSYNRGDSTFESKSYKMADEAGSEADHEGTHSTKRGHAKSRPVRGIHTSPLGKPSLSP
T1 sequence (looked up) 2: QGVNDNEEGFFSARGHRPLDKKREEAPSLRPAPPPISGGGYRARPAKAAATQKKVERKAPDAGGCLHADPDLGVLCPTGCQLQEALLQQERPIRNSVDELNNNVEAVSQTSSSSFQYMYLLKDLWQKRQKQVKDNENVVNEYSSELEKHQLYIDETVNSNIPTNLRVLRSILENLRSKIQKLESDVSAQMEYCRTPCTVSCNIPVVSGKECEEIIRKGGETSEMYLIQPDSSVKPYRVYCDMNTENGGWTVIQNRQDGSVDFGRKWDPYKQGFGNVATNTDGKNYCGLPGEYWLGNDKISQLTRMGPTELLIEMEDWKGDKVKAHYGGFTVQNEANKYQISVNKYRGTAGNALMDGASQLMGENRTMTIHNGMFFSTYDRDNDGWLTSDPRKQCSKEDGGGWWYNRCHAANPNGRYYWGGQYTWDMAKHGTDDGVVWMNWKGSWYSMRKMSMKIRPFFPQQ
T1 sequence (looked up) 3: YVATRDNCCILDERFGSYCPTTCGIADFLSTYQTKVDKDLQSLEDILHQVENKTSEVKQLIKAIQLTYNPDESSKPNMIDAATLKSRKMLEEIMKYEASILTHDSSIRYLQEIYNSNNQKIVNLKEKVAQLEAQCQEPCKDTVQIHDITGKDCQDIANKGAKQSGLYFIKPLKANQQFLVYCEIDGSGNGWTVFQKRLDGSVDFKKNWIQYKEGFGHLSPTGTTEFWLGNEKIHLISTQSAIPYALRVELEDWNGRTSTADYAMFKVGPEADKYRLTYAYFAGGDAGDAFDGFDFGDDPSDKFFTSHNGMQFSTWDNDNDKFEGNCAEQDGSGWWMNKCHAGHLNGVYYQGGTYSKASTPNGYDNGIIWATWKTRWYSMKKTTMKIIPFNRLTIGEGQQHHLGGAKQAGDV
Kind of assay: SPR.

PPACK-thrombin (enzyme) came in with an FH-thrombin complex formed in plasma in assay [1] of 62 nM.

B1: Complement factor H (natural protein, human, UniProt P08603 19-1231, looked up)
chain: EDCNELPPRRNTEILTGSWSDQTYPEGTQAIYKCRPGYRSLGNVIMVCRKGEWVALNPLRKCQKRPCGHPGDTPFGTFTLTGGNVFEYGVKAVYTCNEGYQLLGEINYRECDTDGWTNDIPICEVVKCLPVTAPENGKIVSSAMEPDREYHFGQAVRFVCNSGYKIEGDEEMHCSDDGFWSKEKPKCVEISCKSPDVINGSPISQKIIYKENERFQYKCNMGYEYSERGDAVCTESGWRPLPSCEEKSCDNPYIPNGDYSPLRIKHRTGDEITYQCRNGFYPATRGNTAKCTSTGWIPAPRCTLKPCDYPDIKHGGLYHENMRRPYFPVAVGKYYSYYCDEHFETPSGSYWDHIHCTQDGWSPAVPCLRKCYFPYLENGYNQNYGRKFVQGKSIDVACHPGYALPKAQTTVTCMENGWSPTPRCIRVKTCSKSSIDIENGFISESQYTYALKEKAKYQCKLGYVTADGETSGSITCGKDGWSAQPTCIKSCDIPVFMNARTKNDFTWFKLNDTLDYECHDGYESNTGSTTGSIVCGYNGWSDLPICYERECELPKIDVHLVPDRKKDQYKVGEVLKFSCKPGFTIVGPNSVQCYHFGLSPDLPICKEQVQSCGPPPELLNGNVKEKTKEEYGHSEVVEYYCNPRFLMKGPNKIQCVDGEWTTLPVCIVEESTCGDIPELEHGWAQLSSPPYYYGDSVEFNCSESFTMIGHRSITCIHGVWTQLPQCVAIDKLKKCKSSNLIILEEHLKNKKEFDHNSNIRYRCRGKEGWIHTVCINGRWDPEVNCSMAQIQLCPPPPQIPNSHNMTTTLNYRDGEKVSVLCQENYLIQEGEEITCKDGRWQSIPLCVEKIPCSQPPQIEHGTINSSRSSQESYAHGTKLSYTCEGGFRISEENETTCYMGKWSSPPQCEGLPCKSPPEISHGVVAHMSDSYQYGEEVTYKCFEGFGIDGPAIAKCLGEKWSHPPSCIKTDCLSLPSFENAIPMGEKKDVYKAGEQVTYTCATYYKMDGASNVTCINSRWTGRPTCRDTSCVNPPTVQNAYIVSRQMSKYPSGERVRYQCRSPYEMFGDEEVMCLNGNWTEPPQCKDSTGKCGPPPPIDNGDITSFPLSVYAPASSVEYQCQNLYQLEGNKRITCRNGQWSEPPKCLHPCVISREIMENYNIALRWTAKQKLYSRTGESVEFVCKRGYRLSSRSHTLRTTCWDGKLEYPTCAKR
Take B1: the values for the Kd in assay [2] and in assay [3] were 29.7 nM and 38.2 nM, respectively.
